In assay [1] the target is PIVKA-II antigen (Protein Induced by Vitamin K Absence II; decarboxylated prothrombin) (human) (UniProt P00734). In words: … sandwich chemiluminescent immunoassay, 3C10 microparticles capture, conjugate detects; calibrator E, 7500 mAU/mL PIVKA; mean of 5.
Assay [2] has the same target. Put plainly: … sandwich chemiluminescent immunoassay, 3C10 microparticles capture, conjugate detects; calibrator B, 20 mAU/mL PIVKA; mean of 5.
For assay [3] the target is unchanged. In words: … sandwich chemiluminescent immunoassay, 3C10 microparticles capture, conjugate detects; calibrator C, 100 mAU/mL PIVKA; mean of 5.
The target is the same in assay [4]. Put plainly: … sandwich chemiluminescent immunoassay, 3C10 microparticles capture, conjugate detects; calibrator F, 30000 mAU/mL PIVKA; mean of 5.
Assay [5] has the same target. Put plainly: … sandwich chemiluminescent immunoassay, 3C10 microparticles capture, conjugate detects; calibrator A, 0 mAU/mL PIVKA (blank); mean of 5.
Assay [6] has the same target. In words: … sandwich chemiluminescent immunoassay, 3C10 microparticles capture, conjugate detects; calibrator D, 750 mAU/mL PIVKA; mean of 5.

These results are taken from patent US9120862.

Take “control conjugate that reacts to human prothrombin (Abbott Japan, Tokyo, Japan) (antibody)”: the RLU in assay [1] worked out at 204000 RLU; in assay [2], 683 RLU; in assay [3], 2600 RLU; in assay [4] it was 871000 RLU; in assay [5], 190 RLU; in assay [6], 19000 RLU.
